The values that follow come from paper PMC9043842 (RSC Advances, 2021).

Changes are numbered by the printed parent chain. Numbers in names are those of the source. Where two headings read alike, the source gives them in different places.

Assay in all cases: SEC
In general terms: Size exclusion chromatography separates by hydrodynamic size, large species first.

Data set [1] concerns the molecule itself.
Data set [2] concerns the molecule itself. This is another data set of the same source.
Data set [3] concerns the molecule itself. The source holds these as a separate data set.

B1: G80A/H81A (K3A2H) horse myoglobin (natural protein)
chain: GLSDGEWQQVLNVWGKVEADIAGHGQEVLIRLFTGHPETLEKFDKFKHLKTEAEMKASEDLKKHGTVVLTALGGILKKKAAHEAELKPLAQSHATKHKIPIKYLEFISDAIIHVLHSKHPGDFGADAQGAMTKALELFRNDIAAKYKELGFQG
For B1, the “dimer-to-monomer ratio after heating” value in the data set “SEC [1]” worked out at 92%. Moreover, in “SEC [2]”, the Ka came out at 920000 M⁻¹ and the dH is -30.8 ± 1.1 kcal/mol.

B2: G80A/H81A/L137D (K3A2H-L137D) horse myoglobin (natural protein)
chain: B1 chain with L137D
Regarding B2, the “dimer-to-monomer ratio after heating” value in the data set “SEC [1]” came to 98%. In the data set “SEC [3]”, this protein had a Ka of 2.3e+07 M⁻¹ and a dH of -100 ± 4 kcal/mol.

B3: G80A/H81A/L137E (K3A2H-L137E) horse myoglobin (natural protein)
chain: B1 chain with L137E
For the protein B3, in “SEC [1]”, the “dimer-to-monomer ratio after heating” value worked out at 97%. In the data set “SEC [3]”, this protein registered a Ka of 9.4e+06 M⁻¹ and a dH of -63.2 ± 5.1 kcal/mol.
